For the test, the target named is E. coli-produced Wuhan-Hu1 RBD (receptor binding domain of the SARS-CoV-2 spike protein, a.a. 319-542) (SARS-CoV-2 (Wuhan-Hu1), UniProt P0DTC2). The test can be described thus: ELISA. Conditions: both partners purified.

B1: mAb WRAIR-2057 (antibody, V domains shown)
VH: EVQLVQSGAEVKKPGESLKISCKGSGYSFISYWIAWVRQMPGKGLEWMGIIYPGDSDTTYSPSFQGQVTISADKSISTAYLQWSSLKASDTAIYYCARLLYYSDSSPLDSWGQGTLVTVSS
VL: DIQMTQSPSSLSASVGDRVTITCRASQSISTYLNWYQQKPGKAPNLLIYAASSLQSGVPSRFSGSGSGTDFTLTISSLQPEDFATYYCQQSHSTPRTFGPGTKVDIK
As for B1, the binding result is “binds”.

The record behind these values is publication PMC9864931 (Vaccines, 2022).
